Test results reported in paper doi:10.1101/2023.10.31.564985, “Cryo-EM structure of the Spo11 core complex bound to DNA” (bioRxiv, 2023).

B1: Rec104 (subunit of the purified S. cerevisiae Spo11 core complex) (natural protein)
chain: MSIEEEDTNKITCTQDFLHQYFVTERVSIQFGLNNKTVKRINKDEFDKAVNCIMSWTNYPKPGLKRTASTYLLSNSFKKSATVSLPFILGDPVCMPKRVESNNNDTCLLYSDTLYDDPLIQRNDQAGDEIEDEFSFTLLRSEVNEIRPISSSSTAQILQSDYSALMYERQASNGSIFQFSSP
notes: Rec104, S. cerevisiae; source: Sf9 cells, baculovirus coinfection with Spo11, Rec102 and Ski8; purified as the core complex (NiNTA, Anti-Flag M2, Superdex 200)
B2: Ski8 (subunit of the purified S. cerevisiae Spo11 core complex) (natural protein)
chain: MSKVFIATANAGKAHDADIFSVSACNSFTVSCSGDGYLKVWDNKLLDNENPKDKSYSHFVHKSGLHHVDVLQAIERDAFELCLVATTSFSGDLLFYRITREDETKKVIFEKLDLLDSDMKKHSFWALKWGASNDRLLSHRLVATDVKGTTYIWKFHPFADESNSLTLNWSPTLELQGTVESPMTPSQFATSVDISERGLIATGFNNGTVQISELSTLRPLYNFESQHSMINNSNSIRSVKFSPQGSLLAIAHDSNSFGCITLYETEFGERIGSLSVPTHSSQASLGEFAHSSWVMSLSFNDSGETLCSAGWDGKLRFWDVKTKERITTLNMHCDDIEIEEDILAVDEHGDSLAEPGVFDVKFLKKGWRSGMGADLNESLCCVCLDRSIRWFREAGGK
notes: Ski8, WD-repeat protein, S. cerevisiae; source: Sf9 cells, baculovirus coinfection with Spo11, Rec102 and Rec104; purified as the core complex (NiNTA, Anti-Flag M2, Superdex 200)
B3: Rec102 (subunit of the purified S. cerevisiae Spo11 core complex) (natural protein)
chain: MARDITFLTVFLESCGAVNNDEAGKLLSAWTSTVRIEGPESTDSNSLYIPLLPPGMLKIKLNFKMNDRLVTEEQELFTKLREIVGSSIRFWEEQLFYQVQDVSTIENHVILSLKCTILTDAQISTFISKPRELHTHAKGYPEIYYLSELSTTVNFFSKEGNYVEISQVIPHFNEYFSSLIVSQLEFEYPMVFSMISRLRLKWQQSSLAPISYALTSNSVLLPIMLNMIAQDKSSTTAYQILCRRRGPPIQNFQIFSLPAVTYNK
notes: Rec102, S. cerevisiae; source: Sf9 cells, baculovirus coinfection with Spo11, Rec104 and Ski8; purified as the core complex (NiNTA, Anti-Flag M2, Superdex 200)

What was measured:
[1] = biological target: B3; experiment: cryo-EM structure; core complex (~0.2 mg/ml) incubated with 23-bp hairpin DNA with a two-nucleotide 5' overhang, molar ratio 1:2, 25 mM HEPES-NaOH pH 7.5, 150 mM NaCl, 5 mM MgCl2, 2 mM DTT, 2% glycerol, 1 hr on ice; 3.7 Å; details: both partners purified
[2] = biological target: T1, Spo11 (subunit of the purified S. cerevisiae Spo11 core complex) (S. cerevisiae, UniProt P23179 1-392); experiment: as above; details: both partners purified
T1 construct: Spo11, S. cerevisiae; The complex was purified on NiNTA and anti-Flag resin; Surmise: the tags are on Spo11; source: Sf9 cells, baculovirus coinfection with Rec102, Rec104 and Ski8; purified as the core complex (NiNTA, Anti-Flag M2, Superdex 200)
T1 sequence: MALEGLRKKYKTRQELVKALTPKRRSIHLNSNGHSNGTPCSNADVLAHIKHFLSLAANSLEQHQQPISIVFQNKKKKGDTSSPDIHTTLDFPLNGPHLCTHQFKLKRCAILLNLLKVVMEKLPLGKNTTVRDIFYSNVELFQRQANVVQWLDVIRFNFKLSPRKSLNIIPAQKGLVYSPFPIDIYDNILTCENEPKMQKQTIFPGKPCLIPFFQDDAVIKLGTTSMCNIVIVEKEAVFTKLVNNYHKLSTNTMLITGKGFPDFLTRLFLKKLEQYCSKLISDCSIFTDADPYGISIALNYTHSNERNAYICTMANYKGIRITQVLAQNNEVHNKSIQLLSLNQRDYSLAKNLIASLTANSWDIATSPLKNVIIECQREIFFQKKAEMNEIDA

Binder | stoichiometry N [1] | stoichiometry N [2]
B1 | 1 | 1
B2 | – | 1
B3 | – | 1
